A word on the Kd: it is the constant that tells how readily two partners part at equilibrium. Usually stoichiometry N stands for a count of units in the complex or per binding partner.

Results on 13 substances are retold here after publication PMC11845725.

Assay [1] deals with H. polygyrus TGF-β Mimic 6 (TGM6) (H. polygyrus). The experiment in a line: ITC; binder in the syringe, target in the sample cell, concentrations as in the tables; 25 °C; 25 mM HEPES, 150 mM NaCl, 0.05% NaN3, pH 7.4; fit to a simple 1:1 binding model. On the technique in general: ITC needs no label: the signal is the heat of the interaction.
The target in assay [2] is TGM6 domain 3 (TGM6-D3) (H. polygyrus). The description is as above.
The target in assay [3] is TGM6-D3 I78A (H. polygyrus). The description is as above.
The target of assay [4] is TGM6-D3 P94K R95N (KN) (H. polygyrus). The description is as above.
In assay [5] the target is TGM6-D3 R38A (H. polygyrus). The assay is described as above.
For assay [6], the target named is TGM6-D3 R95A (H. polygyrus). The assay is described as above.
Assay [7] addresses TGM6-D3 Y80A (H. polygyrus). Described as above.
Assay [8] deals with TGM6-D3 Y80F (H. polygyrus). Described as above.
Assay [9] has as its target TGM6-D3 Y93A (H. polygyrus). The assay is described as above.
In assay [10] the target is TGM1 domain 3 (TGM1-D3) (H. polygyrus). Put plainly: ITC; binder in the syringe, target in the sample cell, concentrations as in the tables; 35 °C; 25 mM HEPES, 150 mM NaCl, 0.05% NaN3, pH 7.4; fit to a simple 1:1 binding model.
Assay [11] has as its target TGM1-D3 K241Q S242R G243R T244G (QRRG) (H. polygyrus). The assay is described as above.
In assay [12] the target is TGM1-D3 K254P N255R (PR) (H. polygyrus). Described as above.
For assay [13], the target named is TGM1-D3 S242R (H. polygyrus). Described as above.
For assay [14], the target named is TGM6 domain 3 (TGM6-D3) (H. polygyrus). The assay is described as above.
Assay [15] has as its target TGM6-D3 Q81K R82S R83G G84T (KSGT) (H. polygyrus). Described as above.
Assay [16] has as its target TGM6-D3 R82A (H. polygyrus). The assay is described as above.
Assay [17] has as its target TGM6-D3 R82S (H. polygyrus). Described as above.
For assay [18], the target named is TGM6 domain 3 (TGM6-D3) (H. polygyrus). Put plainly: ITC; competition: 150 μM TGFBR2 in the syringe into 15 μM TGM6-D3 in the cell with 0.0 or 6.0 μM TGM1-D3; 25 °C; ITC buffer pH 7.4; global fit to a simple competitive binding model; constants are for binding in the absence of competitor.
In assay [19] the target is TGFBR2 extracellular domain (TGF-β type II receptor) (UniProt P37173). Put plainly: ITC; TGM6-D3, TGM1-D3 and TGFBR2 variants, simple binding model, 1–2 replicates per variant; syringe and cell proteins in Supplementary Table 6; 25 mM HEPES, 150 mM NaCl, 0.05% NaN3, pH 7.4.
Assay [20] shares this target.
The target in assay [21] is TGF-β type II receptor extracellular domain (TGFBR2) (human). Put plainly: ITC; binder in the syringe, target in the sample cell, concentrations as in the tables; 25 °C; 25 mM HEPES, 150 mM NaCl, 0.05% NaN3, pH 7.4; fit to a simple 1:1 binding model.
The target of the next assay is TGFBR2 D141A (human). Described as above.
In a further assay the target is TGFBR2 I76A (human). The assay is described as above.
In the next assay the target is TGFBR2 D55A (human). Put plainly: ITC; binder in the syringe, target in the sample cell, concentrations as in the tables; 35 °C; 25 mM HEPES, 150 mM NaCl, 0.05% NaN3, pH 7.4; fit to a simple 1:1 binding model.
The target in the next assay is TGFBR2 E142A (human). Described as above.
Assay [22] concerns the target TGM1 domains 4 and 5 (TGM1-D45) (H. polygyrus). The assay is described as above.

“TGF-β type II receptor extracellular domain (TGFBR2)”: the Kd in assay [1] worked out at 222 nM; in [2] it was 360 nM; in assay [3] it was 5560 nM; in assay [4], 270 nM; in assay [5], 8030 nM; in assay [6] it was 3820 nM. Moreover, the dissociation constant Kd in assay [7] was found to be 48400 nM; in assay [8], 1250 nM; in assay [9], 39000 nM; in [10] it was 1530 nM; in assay [11] it was 170 nM; in assay [12], 2620 nM. The Kd is 380 nM in [13]; 437 nM in assay [14]; 4490 nM in [15]; 4230 nM in assay [16]; 3090 nM in assay [17]; 189 nM in [18]. Besides, the stoichiometry N turned out to be 1.16 sites in assay [1]; 0.87 sites in assay [2]; 0.71 sites in assay [3]; 0.9 sites in assay [4]; 0.85 sites in [5]; 1 sites in assay [6]. The stoichiometry N in [7] came to 0.33 sites; in assay [8] it was 0.67 sites; in assay [9], 0.17 sites; in assay [10], 0.72 sites; in assay [11], 1.1 sites; in [12], 0.91 sites. For the same substance, the stoichiometry N was 0.7 sites in [13]; 1.01 sites in [14]; 0.82 sites in [15]; 0.93 sites in [16]; 1.12 sites in assay [17].
Turning to TGM1-D3 S242R (domain or fragment), the fold gain of binding affinity against wild type in assay [19] was 4 fold.
Regarding “TGM6 (TGF-β mimic 6), full-length (natural protein)”, in assay [20], the IC50 of inhibition of the TGF-β1- or TGM1-stimulated CAGA luciferase reporter in NIH-3T3 fibroblasts by increasing concentrations of TGM6 is 0.05 nM and the IC50 of inhibition of the TGF-β1- or TGM1-stimulated reporter in MFB-F11 fibroblasts by increasing concentrations of TGM6 came to 0.2 nM.
“TGM6 domain 3 (TGM6-D3) (domain or fragment)”: the Kd was 350 nM in assay [21]; 940 nM with TGFBR2 D141A (human); 7350 nM in the assay with TGFBR2 I76A (human); 2250 nM in the assay with TGFBR2 D55A (human); 3170 nM with TGFBR2 E142A (human). Further, the stoichiometry N in [21] came to 0.68 sites; with TGFBR2 D141A (human) it was 0.75 sites; in the assay with TGFBR2 I76A (human), 0.69 sites; with TGFBR2 D55A (human), 0.52 sites; with TGFBR2 E142A (human), 0.56 sites.
TGM6-D3 I78A (domain or fragment) registered a fold decrease in binding affinity against wild type in assay [19] of 15.4 fold.
Same read-out and setting: then TGM6-D3 R38A (domain or fragment), with 22 fold; and TGM6-D3 R82A (domain or fragment), with 11 to 12 fold.
Regarding TGM6-D3 R82S (domain or fragment), the fold loss of binding affinity against wild type in assay [19] was found to be 8.6 fold.
Take TGM6-D3 R95A (domain or fragment): the fold decrease in binding affinity against wild type in assay [19] stood at 11.6 fold.
With TGM6-D3 Y80A (domain or fragment), the fold decrease in binding affinity against wild type in assay [19] stood at 134 fold.
In [19], TGM6-D3 Y80F (domain or fragment) came in with a fold decrease in binding affinity against wild type of 3.5 fold.
In [19], TGM6-D3 Y93A (domain or fragment) displayed a fold decrease in binding affinity against wild type of 108 fold.
As for mouse CD44 (mCD44) (receptor), in assay [22], the Kd is 126 nM and the stoichiometry N came out at 0.82 sites.
